Source: patent US20250340631A1 (HARBOUR BIOMED SHANGHAI, published 2025)
Numbering of substitutions follows the chain as printed. One block for each binder: values may come before it.

Key:
human CLDN18.2 [1] = biological target: human CLDN18.2 (human); experiment: cell-based or functional assay
[2] = biological target: T1, human CD3 on Jurkat cells (human, UniProt P07766 23-207); experiment: FACS on Jurkat cells
T1 construct: whole, on cells; on cells it stands in the whole CD3/TCR complex; also called CD3-expressing cells
T1 sequence (P07766 23-207): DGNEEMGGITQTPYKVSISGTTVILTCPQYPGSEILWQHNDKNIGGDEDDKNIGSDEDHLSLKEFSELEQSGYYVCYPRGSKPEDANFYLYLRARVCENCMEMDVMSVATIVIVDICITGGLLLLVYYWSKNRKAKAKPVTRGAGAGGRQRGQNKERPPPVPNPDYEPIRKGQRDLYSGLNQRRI
Procedure: (§1) Antibodies were assayed for binding affinity by FACS. Test cells include HEK293/hCLDN18.2, HEK293/hCLDN18.1, NUGC4_D8 and Jurkat cells. […] The cell density was adjusted to 10⁶ cells/mL, and 50 μL of the cell suspension was added to each well of a 96-well plate. Antibodies were diluted to different concentrations with FACS buffer, and 50 μL of the antibody dilution was added to each well of the 96-well plate. After 2 h of incubation at 4° C., the plate was washed twice with FACS buffer. […] After 1 h of incubation at 4° C., the plate was washed twice with FACS buffer. The cells were resuspended in fixative solution, and then the fluorescence of the cells was monitored using an FACS instrument (ACEA NovoCyte).

human CLDN18.2 [3] = biological target: T2, human CLDN18.2 (human); experiment: FACS on NUGC4_D8 cells
T2 construct: the HEK293 line was made with a GenScript plasmid; also called hCLDN18.2
Procedure: as §1

human CLDN18.1 = biological target: T3, human CLDN18.1 (human, UniProt P56856 1-261); experiment: FACS on HEK293/hCLDN18.1 cells
T3 construct: whole, on cells; also called hCLDN18.1
T3 sequence (P56856 whole entry): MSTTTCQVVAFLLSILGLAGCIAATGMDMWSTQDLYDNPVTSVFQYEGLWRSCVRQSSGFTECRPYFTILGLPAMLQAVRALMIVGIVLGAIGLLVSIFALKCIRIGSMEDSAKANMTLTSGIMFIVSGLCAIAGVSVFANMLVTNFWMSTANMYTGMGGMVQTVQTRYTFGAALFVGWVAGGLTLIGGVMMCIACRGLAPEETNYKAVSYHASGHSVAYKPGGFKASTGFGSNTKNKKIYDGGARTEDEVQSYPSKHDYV
Procedure: as §1

[4] = biological target: CLDN18.2 of SNU620 cells (methionine to leucine at amino acid 149) (human, UniProt P56856-2 1-261); experiment: cell-based or functional assay
CLDN18.2 of SNU620 cells (methionine to leucine at amino acid 149), sequence (P56856 other isoform, or with tags, fused parts or gaps limits assumed): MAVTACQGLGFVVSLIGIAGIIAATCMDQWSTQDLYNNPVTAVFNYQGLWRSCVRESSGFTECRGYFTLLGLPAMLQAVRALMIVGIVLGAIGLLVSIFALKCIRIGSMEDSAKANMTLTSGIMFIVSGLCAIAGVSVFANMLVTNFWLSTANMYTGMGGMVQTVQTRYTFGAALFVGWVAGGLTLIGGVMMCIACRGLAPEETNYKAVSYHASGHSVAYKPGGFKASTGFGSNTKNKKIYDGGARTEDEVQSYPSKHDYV

human CLDN18.2 [5] = biological target: T2, human CLDN18.2; experiment: FACS on HEK293/hCLDN18.2 cells
[6] = biological target: T1, human CD3 on Jurkat cells; experiment: FACS on Jurkat cells (CD3)
Procedure: as §1

[7] = biological target: T4, Human CD3E (Acro, CDE-H5223) (human, UniProt P07766 23-126, biotinylated (mixed with biotin 1:3)); experiment: BLI (Octet), biotinylated CD3 on SA sensor, 1:1 global fit;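 also: antibodies applied as analyte in 2-fold serial dilutions, with a 180 s association phase followed by a 300 s dissociation phase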
T4 construct: also called Human CD3Ec
T4 sequence (P07766 23-126 limits assumed): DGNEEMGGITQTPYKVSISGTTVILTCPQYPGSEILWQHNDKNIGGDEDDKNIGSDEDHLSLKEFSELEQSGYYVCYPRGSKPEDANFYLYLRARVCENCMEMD
Procedure: (§2) The binding kinetics between proteins and antibodies was analyzed by the Biolayer Interferometry (BLI) technique using an Octet Red 96e (Fortebio) system. Human CD3E (Acro, CDE-H5223), cynomolgus CD3E (Acro, CDE-C5226) and murine CD3E (Acro, CDE-M5256) were mixed with biotin (Thermo Scientific, A39257) in a molar ratio of 1:3. The mixture was incubated at 4° C. overnight, and then excess biotin was removed to obtain biotinylated CD3E. The rotation speed was set at 1000 rpm for the system. […] After being equilibrated in the buffer for 120 s, the SA sensor with captured CD3 was allowed to bind to 2-fold serially diluted antibodies. […] Finally, the SA sensor was immersed in a 10 mM glycine-hydrochloric acid solution at pH 1.5 for regeneration to elute the antibodies bound to the sensor. […] For the interactions of fast binding and fast dissociation, the “steady state” method was selected to fit the data to obtain KD(M) values.

[8] = biological target: T5, Biotinylated human CD3E&D (human, UniProt P07766 23-126; P04234 22-105, biotin label); experiment: as above
T5 construct: also called CDD-H82W6
T5 sequence (P07766 23-126, chain 1 of 2): as the sequence (P07766 23-126 limits assumed) above
T5 sequence (P04234 22-105, chain 2 of 2): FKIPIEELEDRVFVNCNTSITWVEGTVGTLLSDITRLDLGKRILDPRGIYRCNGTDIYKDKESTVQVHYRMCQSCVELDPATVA
Procedure: as §2

[9] = biological target: T6, Biotinylated murine CD3E&D (murine, UniProt P22646 22-108; P04235 22-105, biotin label); experiment: BLI (Octet), biotinylated CD3 on SA sensor
T6 construct: also called CDD-M82W5
T6 sequence (P22646 22-108, chain 1 of 2): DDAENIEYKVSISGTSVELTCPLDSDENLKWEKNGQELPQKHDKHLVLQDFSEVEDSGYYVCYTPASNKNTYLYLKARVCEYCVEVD
T6 sequence (P04235 22-105, chain 2 of 2): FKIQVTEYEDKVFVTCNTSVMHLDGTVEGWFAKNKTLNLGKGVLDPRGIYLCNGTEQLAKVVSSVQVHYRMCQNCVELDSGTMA
Procedure: as §2

- TDCC, Titer EC50 (pM), NUGC4_D8 (human CLDN18.2 [1]): 22.4 pM
- binding result [2]: binds
- EC50 (human CLDN18.2 [3]): 13.9 nM
- binding result (human CLDN18.1): no binding
B1: PR005520 (bispecific antibody)
chain 1: EVQLVESGGGLVQPGGSLRLSCAASGFTFSSYWMHWVRQVPGKGLVWVSRINSDGSRTIYADSVKGRFTISRDNAKNTLYLQMNSLRAEDTAVYYCARGEDHDILTGYPIRGQGTTVTVSSGGGGSGGGGSGGGGSEVQLVESGGGLVQPGGSLRLSCAASGFTFSSYWMHWVRQVPGKGLVWVSRINSDGSRTIYADSVKGRFTISRDNAKNTLYLQMNSLRAEDTAVYYCARGEDHDILTGYPIRGQGTTVTVSSASEPKSSDKTHTCPPCPAPEAAGGPSVFLFPPKPKDTLMISRTPEVTCVVVDVSHEDPEVKFNWYVDGVEVHNAKTKPREEQYNSTYRVVSVLTVLHQDWLNGKEYKCKVSNKALPAPIEKTISKAKGQPREPQVCTLPPSREEMTKNQVSLSCAVKGFYPSDIAVEWESNGQPENNYKTTPPVLDSDGSFFLVSKLTVDKSRWQQGNVFSCSVMHEALHNHYTQKSLSLSPGK
chain 2: not shown
light: QAVVTQEPSLTVSPGGTVTLTCRSSTGAVTTSNYANWVQQKPGQAPRGLIGGTNKRAPWTPARFSGSLLGDKAALTLLGAQPEDEAEYFCALWYSNLWVFGGGTKLTVLGQPKAAPSVTLFPPSSEELQANKATLVCLISDFYPGAVTVAWKADSSPVKAGVETTTPSKQSNNKYAASSYLSLTPEQWKSHRSYSCQVTHEGSTVEKTVAPTECS
notes: PR001848 / PR004533; LALA

- TDCC, Titer EC50 (pM), SNU620 [4]: 25.8 pM
- TDCC, Titer EC50 (pM), NUGC4_D8 (human CLDN18.2 [1]): 6.4 pM
- EC50 (human CLDN18.2 [5]): 17.5 nM
- binding result [2]: binds
- EC50 (human CLDN18.2 [3]): 13.1 nM
B2: PR005401 (bispecific antibody, human IgG1, lambda, L234A L235A)
chain: B1 chain 1 with N52D, D54R, N188D, D190R
heavy: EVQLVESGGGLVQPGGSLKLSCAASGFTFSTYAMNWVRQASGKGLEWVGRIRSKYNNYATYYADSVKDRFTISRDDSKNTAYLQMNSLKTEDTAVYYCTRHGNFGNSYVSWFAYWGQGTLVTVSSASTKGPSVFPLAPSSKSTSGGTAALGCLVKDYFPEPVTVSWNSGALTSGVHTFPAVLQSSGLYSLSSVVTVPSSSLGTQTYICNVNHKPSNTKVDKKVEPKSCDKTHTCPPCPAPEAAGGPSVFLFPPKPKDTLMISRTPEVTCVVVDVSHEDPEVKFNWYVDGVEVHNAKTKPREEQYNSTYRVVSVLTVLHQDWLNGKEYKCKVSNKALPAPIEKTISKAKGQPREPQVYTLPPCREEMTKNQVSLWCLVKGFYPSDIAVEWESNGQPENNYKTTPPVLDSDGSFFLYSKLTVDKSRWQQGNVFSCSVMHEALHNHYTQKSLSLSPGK
light: B1 light
notes: structure 1; CD3 Fab from PR003886, CLDN18.2 VH from PR007244; LALA

- EC50 (human CLDN18.2 [5]): 9.6 nM
- binding result [6]: binds
B3: PR007083 (bispecific antibody, human IgG1, lambda)
chain: B1 chain 1 with S49C, N52S, G55A, I70C, S185C, N188S, G191A, I206C, G281A
heavy: EVQLVESGGGLVQPGGSLKLSCAASGFTFSTYAMNWVRQASGKGLEWVGRIRSKYNNYATYYADSVKDRFTISRDDSKNTAYLQMNSLKTEDTAVYYCTRHGNFGNSYVSWFAYWGQGTLVTVSSASTKGPSVFPLAPSSKSTSGGTAALGCLVKDYFPEPVTVSWNSGALTSGVHTFPAVLQSSGLYSLSSVVTVPSSSLGTQTYICNVNHKPSNTKVDKKVEPKSCDKTHTCPPCPAPEAAGAPSVFLFPPKPKDTLMISRTPEVTCVVVDVSHEDPEVKFNWYVDGVEVHNAKTKPREEQYNSTYRVVSVLTVLHQDWLNGKEYKCKVSNKALPAPIEKTISKAKGQPREPQVYTLPPCREEMTKNQVSLWCLVKGFYPSDIAVEWESNGQPENNYKTTPPVLDSDGSFFLYSKLTVDKSRWQQGNVFSCSVMHEALHNHYTQKSLSLSPGK
light: B1 light
notes: structure 1; CD3 Fab from PR003886; AAA

- Kd [7]: 30.8 nM
- koff [7]: 0.00225 s⁻¹
- kon [7]: 73100 M⁻¹ s⁻¹
- Kd [8]: 33.7 nM
- koff [8]: 0.00137 s⁻¹
- kon [8]: 40700 M⁻¹ s⁻¹
- binding result [9]: no binding (tested: 120-7.5 nM)
B4: PR004931 (bispecific antibody)
chain 1: QVQLVQSGAEVKKPGASVKVSCKASGYTFTEFGMNWVRQAPGQGLEWMGWINTKTGEATYVEEFKGRVTFTTDTSTSTAYMELRSLRSDDTAVYYCARWDFAYYVEAMDYWGQGTTVTVSSASTKGPSVFPLAPSSKSTSGGTAALGCLVKDYFPEPVTVSWNSGALTSGVHTFPAVLQSSGLYSLSSVVTVPSSSLGTQTYICNVNHKPSNTKVDKKVEPKSCDGGGGSGGGGSEVQLLESGGGLVQPGGSLRLSCAASGFTFSTYAMNWVRQAPGKGLEWVSRIRSKYNNYATYYADSVKGRFTISRDDSKNTLYLQMNSLRAEDTAVYYCVRHGNFGNSYVSWFAYWGQGTLVTVSSASVAAPSVFIFPPSDEQLKSGTASVVCLLNNFYPREAKVQWKVDNALQSGNSQESVTEQDSKDSTYSLSSTLTLSKADYEKHKVYACEVTHQGLSSPVTKSFNRGECDKTHTCPPCPAPEAAGGPSVFLFPPKPKDTLMISRTPEVTCVVVDVSHEDPEVKFNWYVDGVEVHNAKTKPREEQYNSTYRVVSVLTVLHQDWLNGKEYKCKVSNKALGAPIEKTISKAKGQPREPQVYTLPPCREEMTKNQVSLWCLVKGFYPSDIAVEWESNGQPENNYKTTPPVLDSDGSFFLYSKLTVDKSRWQQGNVFSCSVMHEALHNHYTQKSLSLSPGK
chain 2: QAVVTQEPSLTVSPGGTVTLTCGSSTGAVTTSNYANWVQEKPGQAFRGLIGGTNKRAPGTPARFSGSLLGGKAALTLSGAQPEDEAEYYCALWYSNLWVFGGGTKLTVLSSASTKGPSVFPLAPSSKSTSGGTAALGCLVKDYFPEPVTVSWNSGALTSGVHTFPAVLQSSGLYSLSSVVTVPSSSLGTQTYICNVNHKESNTKVDKKVEPKSC
chain 3: QVQLVQSGAEVKKPGASVKVSCKASGYTFTEFGMNWVRQAPGQGLEWMGWINTKTGEATYVEEFKGRVTFTTDTSTSTAYMELRSLRSDDTAVYYCARWDFAYYVEAMDYWGQGTTVTVSSASTKGPSVFPLAPSSKSTSGGTAALGCLVKDYFPEPVTVSWNSGALTSGVHTFPAVLQSSGLYSLSSVVTVPSSSLGTQTYICNVNHKPSNTKVDKKVEPKSCDKTHTCPPCPAPEAAGGPSVFLFPPKPKDTLMISRTPEVTCVVVDVSHEDPEVKFNWYVDGVEVHNAKTKPREEQYNSTYRVVSVLTVLHQDWLNGKEYKCKVSNKALGAPIEKTISKAKGQPREPQVCTLPPSREEMTKNQVSLSCAVKGFYPSDIAVEWESNGQPENNYKTTPPVLDSDGSFFLVSKLTVDKSRWQQGNVFSCSVMHEALHNHYTQKSLSLSPGK
chain 4: DIQMTQSPSSLSASVGDRVTITCKASAAVGTYVAWYQQKPGKAPKLLIYSASYRKRGVPSRFSGSGSGTDFTLTISSLQPEDFATYYCHQYYTYPLFTFGQGTKLEIKRTVAAPSVFIFPPSDEQLKSGTASVVCLLNNEYPREAKVQWKVDNALQSGNSQESVTEQDSKDSTYSLSSTLTLSKADYEKHKVYACEVTHQGLSSPVTKSFNRGEC
notes: also called anti-CEA×CD3 bispecific antibody (WO2017055389A1, Roche)
